Assay results published in the supplement of paper PMC10567573.

B1: FEM1A (parent)
chain: NIVEYLIQEQPGQEQVAGGEAQPG

Variants of: B1
Assay: protein stability index of a GFP-peptide fusion (GPS, HEK-293T) (PSI 1-6); higher = more stable
Conditions: c terminus: a fixed tail appended
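Also: lentivirally expressed fusions sorted by FACS into six bins by GFP to DsRed ratio, PSI derived from sequencing read proportions per bin multiplied by bin number.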

Protein stability index, by site and new letter:
Q13: A 4.02 | T 3.94 | M 3.86 | S 3.85 | L 3.27 | Y 3.72 | E 4.79 | I 3.35 | N 4.42 | K 4.48 | W 3.18 | H 4.04 | D 4.11 | G 4.18 | P 4.26 | V 4.06 | R 3.79 | F 3.78
G12: V 3.95 | C 4.03 | Q 4.61 | Y 3.12 | N 4.5 | K 4.19 | W 2.89 | P 4.87 | E 4.73 | I 3.86 | R 2.94 | A 3.83 | D 4.69 | M 4.03 | H 4.24 | S 4.65 | T 3.87 | L 3.44 | F 3.09
I7: T 4.65 | L 3.69 | V 4.43 | P 5.71 | Y 4.33 | F 4.14 | W 3.95 | G 4.55 | R 4.92 | C 4.78 | H 4.74 | N 5.3 | S 4.75 | E 5.3 | K 5.17 | Q 5.3 | D 5.39 | M 4.25
Q8: F 2.94 | P 4.71 | H 3.93 | V 3.34 | C 3.36 | S 4.09 | I 3.18 | G 4.26 | M 3.66 | E 4.7 | N 4.42 | A 4.46 | Y 3.36 | W 3.33 | L 4.39 | K 4.06 | R 3.11 | T 4.88 | D 4.89
P11: S 3.96 | F 2.75 | K 3.74 | I 2.65 | W 2.13 | D 4.47 | H 3.6 | A 3.98 | V 3.28 | N 3.8 | L 2.21 | Y 2.65 | Q 3.69 | G 3.89 | T 3.88 | E 4.27 | C 3.11 | M 2.6 | R 3.42
E9: I 2.3 | P 3.71 | K 3.71 | S 3.36 | C 3 | G 3.71 | W 2.45 | Y 2.42 | V 2.06 | D 4.49 | H 2.95 | M 3.35 | L 2.27 | N 3.38 | R 2.88 | Q 3.52 | T 3.15 | A 2.91 | F 2.79
E14: R 3.37 | K 3.85 | T 4.21 | G 3.84 | Y 2.69 | W 2.25 | A 4.06 | S 3.21 | P 3.73 | H 3.48 | I 3.25 | F 2.62 | M 3.34 | D 4.39 | L 3.06 | Q 3.33 | V 2.61 | C 3.38 | N 3.54
Q10: H 3.88 | E 4.62 | P 4.54 | I 3.75 | C 3.83 | D 4.37 | T 3.69 | F 3.16 | R 4.03 | N 4.27 | Y 3.09 | S 4.53 | W 2 | M 3.21 | L 3.43 | V 3.22 | K 4.3 | A 4.34
Q15: H 4.02 | C 4.19 | V 3.66 | N 4.56 | A 4.2 | D 4.08 | L 3.53 | S 4.52 | I 4.08 | T 3.17 | E 4.79 | F 3.24 | P 4.32 | K 3.91 | M 3.78 | G 4.78 | R 3.78 | W 3.22
